Publication PMC10397247
Values belong to the binder of their own block, whether it stands above or below them.

Columns and labels:
4H3029-AA = biological target: T1, 4H3029-AA; assay: two-hybrid library CCmax; conditions: mean of both orientations;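 note: natural log of median RNA to DNA barcode read ratio; higher means stronger binding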
T1 chain: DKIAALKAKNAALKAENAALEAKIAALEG

4H3920-AA = biological target: T2, 4H3920-AA; assay: two-hybrid library CCmax; conditions: mean of both orientations;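 note: natural log of median RNA to DNA barcode read ratio; higher means stronger binding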
T2 chain: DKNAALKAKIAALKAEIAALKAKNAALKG

4H2991-AA = biological target: T3, 4H2991-AA; assay: two-hybrid library CCmax; conditions: mean of both orientations;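 note: natural log of median RNA to DNA barcode read ratio; higher means stronger binding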
T3 chain: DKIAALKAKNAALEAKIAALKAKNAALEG

4H3066-AA = biological target: T4, 4H3066-AA; assay: two-hybrid library CCmax; conditions: mean of both orientations;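 note: natural log of median RNA to DNA barcode read ratio; higher means stronger binding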
T4 chain: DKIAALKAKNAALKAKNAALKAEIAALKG

4H656-AA = biological target: T5, 4H656-AA; assay: two-hybrid library CCmax; conditions: mean of both orientations;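 note: natural log of median RNA to DNA barcode read ratio; higher means stronger binding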
T5 chain: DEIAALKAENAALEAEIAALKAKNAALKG

4H971-AA = biological target: T6, 4H971-AA; assay: two-hybrid library CCmax; conditions: mean of both orientations;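 note: natural log of median RNA to DNA barcode read ratio; higher means stronger binding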
T6 chain: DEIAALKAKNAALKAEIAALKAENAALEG

4H3628-AA = biological target: T7, 4H3628-AA; assay: two-hybrid library CCmax; conditions: mean of both orientations
T7 chain: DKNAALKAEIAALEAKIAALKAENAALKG

4H3666-AA = biological target: T8, 4H3666-AA; assay: two-hybrid library CCmax; conditions: mean of both orientations
T8 chain: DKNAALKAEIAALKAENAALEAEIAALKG

4H3591-AA = biological target: T9, 4H3591-AA; assay: two-hybrid library CCmax; conditions: mean of both orientations
T9 chain: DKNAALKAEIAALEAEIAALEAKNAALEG

4H497-AA = biological target: T10, 4H497-AA; assay: two-hybrid library CCmax; conditions: mean of both orientations
T10 chain: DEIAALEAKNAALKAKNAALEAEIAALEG

4H3939-AA = biological target: T11, 4H3939-AA; assay: two-hybrid library CCmax; conditions: mean of both orientations
T11 chain: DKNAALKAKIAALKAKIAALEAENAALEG

4H675-AA = biological target: T12, 4H675-AA; assay: two-hybrid library CCmax; conditions: mean of both orientations
T12 chain: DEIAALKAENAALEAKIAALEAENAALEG

4H3709-AA = biological target: T13, 4H3709-AA; assay: two-hybrid library CCmax; conditions: mean of both orientations
T13 chain: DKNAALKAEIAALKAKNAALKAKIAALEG

4H189-AA = biological target: T14, 4H189-AA; assay: two-hybrid library CCmax; conditions: mean of both orientations
T14 chain: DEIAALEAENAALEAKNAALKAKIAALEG

4H428-AA = biological target: T15, 4H428-AA; assay: two-hybrid library CCmax; conditions: mean of both orientations
T15 chain: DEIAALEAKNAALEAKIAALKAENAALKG

4H3102-AA = biological target: T16, 4H3102-AA; assay: two-hybrid library CCmax; conditions: mean of both orientations
T16 chain: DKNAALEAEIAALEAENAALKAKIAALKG

4H3446-AA = biological target: T17, 4H3446-AA; assay: two-hybrid library CCmax; conditions: mean of both orientations
T17 chain: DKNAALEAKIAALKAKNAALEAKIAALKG

4H2713-AA = biological target: T18, 4H2713-AA; assay: two-hybrid library CCmax; conditions: mean of both orientations
T18 chain: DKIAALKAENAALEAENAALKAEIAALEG

4H2283-AA = biological target: T19, 4H2283-AA; assay: two-hybrid library CCmax; conditions: mean of both orientations
T19 chain: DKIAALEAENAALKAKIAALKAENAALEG

4H478-AA = biological target: T20, 4H478-AA; assay: two-hybrid library CCmax; conditions: mean of both orientations
T20 chain: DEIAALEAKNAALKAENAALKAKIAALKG

4H391-AA = biological target: T21, 4H391-AA; assay: two-hybrid library CCmax; conditions: mean of both orientations
T21 chain: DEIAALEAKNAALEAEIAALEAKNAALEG

4H2742-AA = biological target: T22, 4H2742-AA; assay: two-hybrid library CCmax; conditions: mean of both orientations
T22 chain: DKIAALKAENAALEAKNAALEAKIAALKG

4H3121-AA = biological target: T23, 4H3121-AA; assay: two-hybrid library CCmax; conditions: mean of both orientations
T23 chain: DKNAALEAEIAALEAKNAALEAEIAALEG

4H1854-AA = biological target: T24, 4H1854-AA; assay: two-hybrid library CCmax; conditions: mean of both orientations
T24 chain: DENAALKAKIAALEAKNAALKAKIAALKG

4H3417-AA = biological target: T25, 4H3417-AA; assay: two-hybrid library CCmax; conditions: mean of both orientations
T25 chain: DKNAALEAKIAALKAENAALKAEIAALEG

4H2948-AA = biological target: T26, 4H2948-AA; assay: two-hybrid library CCmax; conditions: mean of both orientations
T26 chain: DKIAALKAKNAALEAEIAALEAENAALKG

4H2248-AA = biological target: T27, 4H2248-AA; assay: two-hybrid library CCmax; conditions: mean of both orientations
T27 chain: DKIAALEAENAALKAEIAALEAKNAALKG

4H1809-AA = biological target: T28, 4H1809-AA; assay: two-hybrid library CCmax
T28 chain: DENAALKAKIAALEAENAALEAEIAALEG

O16-bN = biological target: T29, O16-bN; assay: two-hybrid library CCNG1
T29 chain: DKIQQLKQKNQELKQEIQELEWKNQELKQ

4H491-bA = biological target: T30, 4H491-bA; assay: two-hybrid library CCNG1
T30 chain: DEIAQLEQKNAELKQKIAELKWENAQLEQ

4H953-bN = biological target: T31, 4H953-bN; assay: two-hybrid library CCNG1
T31 chain: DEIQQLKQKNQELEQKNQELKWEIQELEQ

4H2702-bN = biological target: T32, 4H2702-bN; assay: two-hybrid library CCNG1
T32 chain: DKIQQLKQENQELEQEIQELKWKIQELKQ

4H346-bN = biological target: T33, 4H346-bN; assay: two-hybrid library CCNG1
T33 chain: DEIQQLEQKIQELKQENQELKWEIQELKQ

4H918-bN = biological target: T34, 4H918-bN; assay: two-hybrid library CCNG1
T34 chain: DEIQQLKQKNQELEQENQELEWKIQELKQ

4H3112-bN = biological target: T35, 4H3112-bN; assay: two-hybrid library CCNG1
T35 chain: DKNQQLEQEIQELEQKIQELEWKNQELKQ

4H3010-bN = biological target: T36, 4H3010-bN; assay: two-hybrid library CCNG1
T36 chain: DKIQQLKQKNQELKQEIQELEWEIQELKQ

4H3926-bN = biological target: T37, 4H3926-bN; assay: two-hybrid library CCNG1
T37 chain: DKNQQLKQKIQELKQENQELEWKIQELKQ

4H3427-bN = biological target: T38, 4H3427-bN; assay: two-hybrid library CCNG1
T38 chain: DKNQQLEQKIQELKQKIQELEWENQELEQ

4H855-bN = biological target: T39, 4H855-bN; assay: two-hybrid library CCNG1
T39 chain: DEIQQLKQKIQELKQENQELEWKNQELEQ

4H780-bN = biological target: T40, 4H780-bN; assay: two-hybrid library CCNG1
T40 chain: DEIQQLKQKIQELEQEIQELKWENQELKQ

4H575-bN = biological target: T41, 4H575-bN; assay: two-hybrid library CCNG1
T41 chain: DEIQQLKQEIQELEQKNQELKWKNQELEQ

4H2673-bN = biological target: T42, 4H2673-bN; assay: two-hybrid library CCNG1
T42 chain: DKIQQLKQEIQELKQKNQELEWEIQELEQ

4H3381-bH = biological target: T43, 4H3381-bH; assay: two-hybrid library CCNG1
T43 chain: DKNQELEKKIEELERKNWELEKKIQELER

4H683-bN = biological target: T44, 4H683-bN; assay: two-hybrid library CCNG1
T44 chain: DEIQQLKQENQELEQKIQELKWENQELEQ

4H968-bN = biological target: T45, 4H968-bN; assay: two-hybrid library CCNG1
T45 chain: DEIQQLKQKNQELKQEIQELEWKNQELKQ

4H3057-bN = biological target: T46, 4H3057-bN; assay: two-hybrid library CCNG1
T46 chain: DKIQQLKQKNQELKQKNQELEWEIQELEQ

4H4073-bN = biological target: T47, 4H4073-bN; assay: two-hybrid library CCNG1
T47 chain: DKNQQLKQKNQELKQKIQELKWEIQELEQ

4H797-bN = biological target: T48, 4H797-bN; assay: two-hybrid library CCNG1
T48 chain: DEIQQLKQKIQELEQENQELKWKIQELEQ

4H754-bN = biological target: T49, 4H754-bN; assay: two-hybrid library CCNG1
T49 chain: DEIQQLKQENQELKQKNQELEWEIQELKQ

4H457-bN = biological target: T50, 4H457-bN; assay: two-hybrid library CCNG1
T50 chain: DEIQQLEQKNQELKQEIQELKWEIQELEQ

interaction score (4H3029-AA): -2.28 | interaction score (4H3920-AA): -0.86 | interaction score (4H2991-AA): -0.235 | interaction score (4H3066-AA): 0.194 | interaction score (4H656-AA): -1.1 | interaction score (4H971-AA): 0.362 | interaction score (4H3628-AA): -1.29 | interaction score (4H3666-AA): -1.2 | interaction score (4H3591-AA): -1.94 | interaction score (4H497-AA): -1.51 | interaction score (4H3939-AA): -1.45 | interaction score (4H675-AA): -1.74 | interaction score (4H3709-AA): 1.51 | interaction score (4H189-AA): -0.354 | interaction score (4H428-AA): -0.837 | interaction score (4H3102-AA): 2.27 | interaction score (4H3446-AA): 1.42 | interaction score (4H2713-AA): -1.63 | interaction score (4H2283-AA): 1.16 | interaction score (4H478-AA): 0.898 | interaction score (4H391-AA): -1.47 | interaction score (4H2742-AA): -1.29 | interaction score (4H3121-AA): -1.18 | interaction score (4H1854-AA): 2.32 | interaction score (4H3417-AA): -0.579 | interaction score (4H2948-AA): -1.16 | interaction score (4H2248-AA): -0.294 | interaction score (4H1809-AA): -0.349
Binder: DENAALKAKIAALEAENAALEAEIAALEG [4H1809-AA]

interaction score (O16-bN): 0.749 | interaction score (4H491-bA): -0.879
Binder: DEIAQLEQKNAELKQKIAELKWENAQLEQ [4H491-bA]

interaction score (4H953-bN): -1.21 | interaction score (4H2702-bN): -0.755 | interaction score (4H346-bN): -0.543 | interaction score (4H918-bN): -1.57 | interaction score (4H3112-bN): -0.658 | interaction score (4H3010-bN): 1.39 | interaction score (4H3926-bN): -0.806 | interaction score (4H3427-bN): -1.55 | interaction score (4H855-bN): -1.2 | interaction score (4H780-bN): -1.43 | interaction score (4H575-bN): -1.53 | interaction score (4H2673-bN): 0.657 | interaction score (4H3381-bH): -0.468 | interaction score (4H683-bN): -0.954 | interaction score (4H968-bN): -0.538 | interaction score (4H3057-bN): -0.47 | interaction score (4H4073-bN): -1.63 | interaction score (4H797-bN): -0.839 | interaction score (4H754-bN): -1.07 | interaction score (4H457-bN): -1.88
Binder: DKIQQLKQEIQELKQKNQELEWEIQELEQ [4H2673-bN]
